Laboratory results reported in paper PMC3691600, “Conversion of fatty aldehydes into alk (a/e)nes by in vitro reconstituted cyanobacterial aldehyde-deformylating oxygenase with the cognate electron transfer system” (Biotechnology for Biofuels, 2013).

Experiments:
purified protein = substrate: NC(=O)C1=CN([C@@H]2O[C@H](COP(=O)(O)OP(=O)(O)OC[C@H]3O[C@@H](n4cnc5c(N)ncnc54)[C@H](OP(=O)(O)O)[C@@H]3O)[C@@H](O)[C@H]2O)C=CC1; assay: purified protein; format: biochemical, Synechococcus elongatus; conditions: 0.7 mM potassium ferricyanide, 50 mM Tris-HCl pH 8.0, 25°C
[1] = substrate: CCCCCCC=O; assay: GC headspace assay of n-hexane formation; format: biochemical, Synechococcus elongatus; conditions: chemical reductants PMS/NADH, ferrous ammonium sulfate, HEPES pH 7.2, 100 mM KCl, 10% glycerol, 4% DMSO, 37°C (conditions of the kcat assay)

Protein	Km (purified protein)	kcat (purified protein)	kcat/Km (purified protein)	Km [1]	kcat [1]
FNR (SynPcc7942_0978) (Synechococcus elongatus PCC 7942 = FACHB-805) (protein) MLNASVAGGAATTTYGNRLFIYEVIGLRQAEGEPSDSSIRRSGSTFFKVPYSRMNQEMQRILRLGGKIVSIRPAEEAAANNGAAPLQAAAEEPAAAPTPAPAAKKHSAEDVPVNIYRPNKPFVGKVLSNEPLVQEGGIGVVQHLTFDISEGDLRYIEGQSIGIIPDGTDDKGKPHKLRLYSIASTRHGDHVDDKTVSLCVRQLQYQNEAGETINGVCSTFLCGLKPGDDVKITGPVGKEMLLPADTDANVIMMGTGTGIAPFRAYLWRMFKDNERAINSEYQFNGKAWLIFGIPTTANILYKEELEALQAQYPDNFRLTYAISREQKNEAGGRMYIQDRVAEHADEIWNLLKDEKTHVYICGLRGMEDGIDQAMTVAAAKEDVVWSDYQRTLKKAGRWHVETY	92.5 ± 7.6 µM	227 ± 7 s⁻¹	2.5e+06 ± 300000 M⁻¹ s⁻¹	–	–
ADO 1593 (Synechococcus elongatus PCC 7942 = FACHB-805) (protein, apo-ADO reconstituted with ferrous iron) MPQLEASLELDFQSESYKDAYSRINAIVIEGEQEAFDNYNRLAEMLPDQRDELHKLAKMEQRHMKGFMACGKNLSVTPDMGFAQKFFERLHENFKAAAAEGKVVTCLLIQSLIIECFAIAAYNIYIPVADAFARKITEGVVRDEYLHRNFGEEWLKANFDASKAELEEANRQNLPLVWLMLNEVADDARELGMERESLVEDFMIAYGEALENIGFTTREIMRMSAYGLAAV	–	–	–	224 ± 40 µM	0.002 ± 0.00033 s⁻¹
